The source of these data is US20080038735A1 (DOMANTIS, published 2008).

Test [1] deals with T1, TNFa (UniProt P01375 77-233, biotinylated (sites not given)).
T1 construct: also called biotinylated TNFa; bio-TNFa
Kind of test: not stated (told as a known affinity); higher affinity dAb, known affinity.

The target of test [2] is T1, TNFa. Kind of test: ELISA: in vitro translated dAb captured on the plate, incubated with a concentration range of biotinylated TNFa, detected with streptavidin-HRP. On the procedure:
(§1) The ligation mixture was transformed to XL-10 gold cells (Stratagene) and cells were plated. […] The typical amplification cycle for this PCR is performed with platinum pfx DNA polymerase (invitrogen) and consists of: initial denaturation of 3 min at 95 C, followed by 25 cycles of 30 seconds at 95 C, 30 seconds at 60 C, and 2 minutes at 68 C; and a final extension at 68 C for 3 minutes. The PCR product is cleaned on a Qiagen spin column, eluted and the DNA concentration determined by OD 260/280. The cleaned PCR product is used for in vitro transcription/translation (IVT). A typical 50 μl IVT reaction consists of 500 ng of DNA, 2.0 λl methionine (5 mM), 1.5 μl oxidized glutathione (100 mM) (Sigma), 35 μl bacterial extract, e.g. EcoPro (Novagen), and 11 μl H₂O. The IVT reaction can be performed for 1 up to 4 hours at temperatures between 20 C and 37 C. After IVT, the reaction is diluted 1 in 10 in PBS+0.2% tween-20. Fifty μl are added to an ELISA plate, that has been coated with anti-HA (3F10, Roche) (1 μg/ml in PBS), and incubated for 1 hour at room temperature. After washing, a concentration range (0-500 nM) of biotinylated antigen, i.e. TNFa, is added and incubated on the plate for 1 hour. Again, plate is washed and streptavidin conjugated to horse radish peroxidase (Streptavidin-HRP, Amersham) at a dilution of 1:3500 is added and incubated on the plate for 30 minutes.
(In an ELISA, binding on a coated surface is turned into a signal by an enzyme label.)

Test [3] concerns the target T1, TNFa. As to the kind of experiment: ELISA: in vitro translated E5 construct captured on the plate, incubated with a concentration range of biotinylated TNFa, streptavidin-HRP; the sheet does not say whether E5 is free or fused to Tus. On the procedure:
as §1

Where a chain is given by its changes, count along the chain named.

T1 sequence (P01375 77-233 limits assumed): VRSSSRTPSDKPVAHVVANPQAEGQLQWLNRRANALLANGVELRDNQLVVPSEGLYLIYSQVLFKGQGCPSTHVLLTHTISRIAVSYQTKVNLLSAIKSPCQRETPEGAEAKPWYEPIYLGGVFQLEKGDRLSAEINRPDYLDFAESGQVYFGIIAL

B1: Vk(TAR1-5-19) (other)
VL: MASTDIQMTQSPSSLSASVGDRVTITCRASQSIDSYLHWYQQKPGKAPKLLIYSASELQSGVPSRFSGSGSGTDFTLTISSLQPEDFATYYCQQVVWRPFTFGQGTKVEIKRAA
notes: Vk domain antibody tested as free dAb; also called free dAb; monomeric domain antibody in solution
As usually defined, the Kd is the concentration at which binding is half-saturated. As a reminder, the EC50 (read off the curve) is the concentration that produces a half-maximal response. In turn, B1 registered a dissociation constant (Kd) in the test with TNFa [1] of 50 nM. Also, in the test with TNFa [2], the “EC50 (read off the curve)” value was roughly 7 nM.

B2: Vk(E5) (other)
VL: B1 VL with I33V, D34S, H38N, S54L, E57R, V95N, V96W, R98L, F100P
notes: also called Anti-beta-galactosidase Vk clone E5; 7t^3T.Vk(E5)
With B2, the binding result in the test with TNFa [3] was “no binding (tested: 1000 nM)”.
